Source: patent publication US20190309078A1 (Hoffmann-La Roche, published 2019)

Target: human CSF-1R fragment D1-D3 (human, UniProt P07333 20-311)
Assay: SPR
Description: The binding of […] anti-CSF-1R antibodies to human CSF-1R fragment D1-D3 (SEQ ID NO:13) was measured as described in Example 10 of WO2011/070024.

- binding result: no binding
B1: emactuzumab (antibody, V domains shown)
VH: QVQLVQSGAEVKKPGASVKVSCKASGYTFTSYDISWVRQAPGQGLEWMGVIWTDGGTNYAQKLQGRVTMTTDTSTSTAYMELRSLRSDDTAVYYCARDQRLYFDVWGQGTTVTVSS
VL: DIQMTQSPSSLSASVGDRVTITCRASEDVNTYVSWYQQKPGKAPKLLIYAASNRYTGVPSRFSGSGSGTDFTLTISSLQPEDFATYYCQQSFSYPTFGQGTKLEIK
notes: also called anti-CSF-1R antibody emactuzumab; <CSF-1R> MAb
